Assay results: patent publication US20250066745A1, “MUTANTS AND USE THEREOF” (BGI SHENZHEN, priority 2021, published 2025)

Tests used:
[1] = Luminescence activity assay of purified Gaussia luciferase mutants on coelenterazine; format: biochemical; design: key to Activity of mutant relative to wild-type Gaussia luciferase without the signal peptide: ratio of mutant luminescence intensity to wild-type Gaussia luciferase; conditions: Substrate CTZ (Table 16)
Experimental: (§1) In this Example, the protein concentration was determined with a BCA quantitative kit (Thermo Scientific™ Pierce™ BCA Protein Assay Kit) accurately. The purified luciferase obtained in Example 5 was diluted with diluent (50 mM Tris-HCl, pH 8.0, 100 mM NaCl, 0.1% (v/v) Tween-20) to 1 μg/mL. The diluted luciferase, taken for 10 μL, was moved into a black 96-well plate, then added with 90 μL of the substrates coelenterazine, fluoro-coelenterazine or coelenterazine derivative ZS2 (purchased from Biolab) which was diluted into 100 μM with the same diluent, and the luminescence intensity of the plate was read with a self-luminescence module of a microplate reader. The mutation site of the mutant, the measured luminescence intensity, the ratio of luminescence intensities of the advantageous mutants to the wild-type Gaussia luciferase without the signal peptide having the sequence shown in SEQ ID NO: 3 are shown in Table 15. The results of catalytic activity assay of the advantageous mutants relative to the wild-type Gaussia luciferase without the signal peptide having the sequence shown in SEQ ID NO: 3 on substrate coelenterazine are shown in FIG. 6. […] The results of catalytic activity assay of the advantageous mutants relative to the wild-type Gaussia luciferase without the signal peptide having the sequence shown in SEQ ID NO: 3 on substrate fluoro-coelenterazine are shown in FIG. 7.
(§2) The new mutant library constructed in Example 7 was screened and tested for substrate specificity. Expression and purification schemes were the same as that in Example 5, and the activity assay scheme was the same as that in Example 6. The respective catalytic activities of combinatorial mutants on coelenterazine, fluoro-coelenterazine or coelenterazine derivative ZS2, and coelenterazine derivative ZS26 (purchased from BIOLAB) were assayed, and comparisons among the substrate specificities of the combinatorial mutants were based on the ratios of catalytic activities on two corresponding substrates.

[2] = Luminescence activity assay of purified Gaussia luciferase mutants on coelenterazine derivative ZS2; format: biochemical; design: key to Activity of mutant relative to wild-type Gaussia luciferase without the signal peptide: ratio of mutant luminescence intensity to wild-type Gaussia luciferase; conditions: Substrate ZS2 (Table 16)
Experimental: as §1, §2

Molecule | Activity of mutant relative to wild-type Gaussia luciferase without the signal peptide [1] | Activity of mutant relative to wild-type Gaussia luciferase without the signal peptide [2]
F26R N27D V29C A30G V31L A32D S33V A36V T37S: Gaussia luciferase mutant (protein, SIGNAL (1)..(17), Gaussia luciferase mutant) MGVKVLFALICIAVAEAKPTENNEDRDICGLDVNFVSTDLDADRGKLPGKKLPLEVLKEMEANARKAGCTRGCLICLSHIKCTPKMKKFIPGRCHTYEGDKESAQGGIGEAIVDIPEIPGFKDLEPMEQFIAQVDLCVDCTTGCLKGLANVQCSDLLKKWLPQRCATFASKIQGQVDKIKGAGGD | 1.308 | 0.128
F26T N27N V29E V31I A32G S33V A36R T37G L40G: Gaussia luciferase mutant (protein, SIGNAL (1)..(17), Gaussia luciferase mutant) MGVKVLFALICIAVAEAKPTENNEDTNIEAIGVNFRGTDGDADRGKLPGKKLPLEVLKEMEANARKAGCTRGCLICLSHIKCTPKMKKFIPGRCHTYEGDKESAQGGIGEAIVDIPEIPGFKDLEPMEQFIAQVDLCVDCTTGCLKGLANVQCSDLLKKWLPQRCATFASKIQGQVDKIKGAGGD | 0.940 | 1.995
F26R V29F A30D V31L S33G T37D L40A: Gaussia luciferase mutant (protein, SIGNAL (1)..(17), Gaussia luciferase mutant) MGVKVLFALICIAVAEAKPTENNEDRNIFDLAGNFADTDADADRGKLPGKKLPLEVLKEMEANARKAGCTRGCLICLSHIKCTPKMKKFIPGRCHTYEGDKESAQGGIGEAIVDIPEIPGFKDLEPMEQFIAQVDLCVDCTTGCLKGLANVQCSDLLKKWLPQRCATFASKIQGQVDKIKGAGGD | 1.017 | 1.781
F26R V29R A30V V31L S33G A36V T37R: Gaussia luciferase mutant (protein, SIGNAL (1)..(17), Gaussia luciferase mutant) MGVKVLFALICIAVAEAKPTENNEDRNIRVLAGNFVRTDLDADRGKLPGKKLPLEVLKEMEANARKAGCTRGCLICLSHIKCTPKMKKFIPGRCHTYEGDKESAQGGIGEAIVDIPEIPGFKDLEPMEQFIAQVDLCVDCTTGCLKGLANVQCSDLLKKWLPQRCATFASKIQGQVDKIKGAGGD | 0.423 | 0.115
F26R V29D A30G A32D A36I T37A L40R: Gaussia luciferase mutant (protein, SIGNAL (1)..(17), Gaussia luciferase mutant) MGVKVLFALICIAVAEAKPTENNEDRNIDGVDSNFIATDRDADRGKLPGKKLPLEVLKEMEANARKAGCTRGCLICLSHIKCTPKMKKFIPGRCHTYEGDKESAQGGIGEAIVDIPEIPGFKDLEPMEQFIAQVDLCVDCTTGCLKGLANVQCSDLLKKWLPQRCATFASKIQGQVDKIKGAGGD | 0.453 | 2.460
F26S V29L A30G S33R T37K L40A: Gaussia luciferase mutant (protein, SIGNAL (1)..(17), Gaussia luciferase mutant) MGVKVLFALICIAVAEAKPTENNEDSNILGVARNFAKTDADADRGKLPGKKLPLEVLKEMEANARKAGCTRGCLICLSHIKCTPKMKKFIPGRCHTYEGDKESAQGGIGEAIVDIPEIPGFKDLEPMEQFIAQVDLCVDCTTGCLKGLANVQCSDLLKKWLPQRCATFASKIQGQVDKIKGAGGD | 1.067 | 0.787

Next, values leading:

Activity of mutant relative to wild-type Gaussia luciferase without the signal peptide [1] | Activity of mutant relative to wild-type Gaussia luciferase without the signal peptide [2] | Molecule
1.111 | 1.709 | K66N H79K P84L S103T E110A D123N L124M E128G V138E: Gaussia luciferase mutant (protein, SIGNAL (1)..(17), Gaussia luciferase mutant) MGVKVLFALICIAVAEAKPTENNEDFNIVAVASNFATTDLDADRGKLPGKKLPLEVLKEMEANARNAGCTRGCLICLSKIKCTLKMKKFIPGRCHTYEGDKETAQGGIGAAIVDIPEIPGFKNMEPMGQFIAQVDLCEDCTTGCLKGLANVQCSDLLKKWLPQRCATFASKIQGQVDKIKGAGGD
1.000 | 1.611 | K66R E102K E110G D123N V138D: Gaussia luciferase mutant (protein, SIGNAL (1)..(17), Gaussia luciferase mutant) MGVKVLFALICIAVAEAKPTENNEDFNIVAVASNFATTDLDADRGKLPGKKLPLEVLKEMEANARRAGCTRGCLICLSHIKCTPKMKKFIPGRCHTYEGDKKSAQGGIGGAIVDIPEIPGFKNLEPMEQFIAQVDLCDDCTTGCLKGLANVQCSDLLKKWLPQRCATFASKIQGQVDKIKGAGGD
0.674 | 1.560 | K66R E102D E110P V138D: Gaussia luciferase mutant (protein, SIGNAL (1)..(17), Gaussia luciferase mutant) MGVKVLFALICIAVAEAKPTENNEDFNIVAVASNFATTDLDADRGKLPGKKLPLEVLKEMEANARRAGCTRGCLICLSHIKCTPKMKKFIPGRCHTYEGDKDSAQGGIGPAIVDIPEIPGFKDLEPMEQFIAQVDLCDDCTTGCLKGLANVQCSDLLKKWLPQRCATFASKIQGQVDKIKGAGGD
1.302 | 0.587 | K66R P84A E102S S103I A104G E110A L124M V138E: Gaussia luciferase mutant (protein, SIGNAL (1)..(17), Gaussia luciferase mutant) MGVKVLFALICIAVAEAKPTENNEDFNIVAVASNFATTDLDADRGKLPGKKLPLEVLKEMEANARRAGCTRGCLICLSHIKCTAKMKKFIPGRCHTYEGDKSIGQGGIGAAIVDIPEIPGFKDMEPMEQFIAQVDLCEDCTTGCLKGLANVQCSDLLKKWLPQRCATFASKIQGQVDKIKGAGGD
0.122 | 1.209 | K66R P84A E102A S103I A104G E110A: Gaussia luciferase mutant (protein, SIGNAL (1)..(17), Gaussia luciferase mutant) MGVKVLFALICIAVAEAKPTENNEDFNIVAVASNFATTDLDADRGKLPGKKLPLEVLKEMEANARRAGCTRGCLICLSHIKCTAKMKKFIPGRCHTYEGDKAIGQGGIGAAIVDIPEIPGFKDLEPMEQFIAQVDLCVDCTTGCLKGLANVQCSDLLKKWLPQRCATFASKIQGQVDKIKGAGGD
0.172 | 0.112 | K66N P84L E102K E110P D123N: Gaussia luciferase mutant (protein, SIGNAL (1)..(17), Gaussia luciferase mutant) MGVKVLFALICIAVAEAKPTENNEDFNIVAVASNFATTDLDADRGKLPGKKLPLEVLKEMEANARNAGCTRGCLICLSHIKCTLKMKKFIPGRCHTYEGDKKSAQGGIGPAIVDIPEIPGFKNLEPMEQFIAQVDLCVDCTTGCLKGLANVQCSDLLKKWLPQRCATFASKIQGQVDKIKGAGGD
